Measured values from IntAct's records for PubMed 31515488.

B1: Microtubule-associated tumor suppressor candidate 2 (Homo sapiens), Q5JR59-3 (parent)
chain: MGHCCCKPYNCLQCLDKTNESALVKEKELSIELANIRDEVAFHTAKCEKLQKEKEELERRFEDEVKRLGWQQQAELQELEERLQLQFEAEMARLQEEHGDQLLSIRCQHQEQVEDLTASHDAALLEMENNHTVAITILQDDHDHKVQELMSTHELEKKELEENFEKLRLSLQDQVDTLTFQSQSLRDRARRFEEALRKNTEEQLEIALAPYQHLEEDMKSLKQVLEMKNQQIHEQEKKILELEKLAEKNIILEEKIQVLQQQNEDLKARIDQNTVVTRQLSEENANLQEYVEKETQEKKRLSRTNEELLWKLQTGDPTSPIKLSPTSPVYRGSSSGPSSPARVSTTPR
partner: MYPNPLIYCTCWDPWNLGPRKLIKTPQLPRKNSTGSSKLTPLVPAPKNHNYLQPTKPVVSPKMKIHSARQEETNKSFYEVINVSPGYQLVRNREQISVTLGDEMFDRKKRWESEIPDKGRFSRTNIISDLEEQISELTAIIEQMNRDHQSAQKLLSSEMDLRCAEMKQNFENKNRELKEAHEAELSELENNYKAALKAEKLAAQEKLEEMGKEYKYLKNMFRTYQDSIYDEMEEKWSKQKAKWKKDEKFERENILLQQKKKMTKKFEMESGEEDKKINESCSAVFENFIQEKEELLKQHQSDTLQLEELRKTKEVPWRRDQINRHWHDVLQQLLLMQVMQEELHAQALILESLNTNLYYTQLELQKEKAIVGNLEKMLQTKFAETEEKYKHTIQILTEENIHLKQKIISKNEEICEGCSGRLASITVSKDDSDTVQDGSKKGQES
B2: Zinc finger protein 512B (Homo sapiens), Q96KM6 (parent)
chain: MTDPFCVGGRRLPGSSKSGPGKDGSRKEVRLPMLHDPPKMGMPVVRGGQTVPGQAPLCFDPGSPASDKTEGKKKGRPKAENQALRDIPLSLMNDWKDEFKAHSRVKCPNSGCWLEFPSIYGLKYHYQRCQGGAISDRLAFPCPFCEAAFTSKTQLEKHRIWNHMDRPLPASKPGPISRPVTISRPVGVSKPIGVSKPVTIGKPVGVSKPIGISKPVSVGRPMPVTKAIPVTRPVPVTKPVTVSRPMPVTKAMPVTKPITVTKSVPVTKPVPVTKPITVTKLVTVTKPVPVTKPVTVSRPIVVSKPVTVSRPIAISRHTPPCKMVLLTRSENKAPRATGRNSGKKRAADSLDTCPIPPKQARPENGEYGPSSMGQSSAFQLSADTSSGSLSPGSRPSGGMEALKAAGPASPPEEDPERTKHRRKQKTPKKFTGEQPSISGTFGLKGLVKAEDKARVHRSKKQEGPGPEDARKKVPAAPITVSKEAPAPVAHPAPGGPEEQWQRAIHERGEAVCPTCNVVTRKTLVGLKKHMEVCQKLQDALKCQHCRKQFKSKAGLNYHTMAEHSAKPSDAEASEGGEQEERERLRKVLKQMGRLRCPQEGCGAAFSSLMGYQYHQRRCGKPPCEVDSPSFPCTHCGKTYRSKAGHDYHVRSEHTAPPPEEPTDKSPEAEDPLGVERTPSGRVRRTSAQVAVFHLQEIAEDELARDWTKRRMKDDLVPETARLNYTRPGLPTLNPQLLEAWKNEVKEKGHVNCPNDCCEAIYSSVSGLKAHLASCSKGAHLAGKYRCLLCPKEFSSESGVKYHILKTHAENWFRTSADPPPKHRSQDSLVPKKEKKKNLAGGKKRGRKPKERTPEEPVAKLPPRRDDWPPGCRDKGARGSTGRKVGVSKAPEK
B3: Nebulette (Homo sapiens), O76041 (parent)
chain: MRVPVFEDIKDETEEEKIGEEENEEDQVFYKPVIEDLSMELARKCTELISDIRYKEEFKKSKDKCTFVTDSPMLNHVKNIGAFISEAKYKGTIKADLSNSLYKRMPATIDSVFAGEVTQLQSEVAYKQKHDAAKGFSDYAHMKEPPEVKHAMEVNKHQSNISYRKDVQDTHTYSAELDRPDIKMATQISKIISNAEYKKGQGIMNKEPAVIGRPDFEHAVEASKLSSQIKYKEKFDNEMKDKKHHYNPLESASFRQNQLAATLASNVKYKKDIQNMHDPVSDLPNLLFLDHVLKASKMLSGREYKKLFEENKGMYHFDADAVEHLHHKGNAVLQSQVKYKEEYEKNKGKPMLEFVETPSYQASKEAQKMQSEKVYKEDFEKEIKGRSSLDLDKTPEFLHVKYITNLLREKEYKKDLENEIKGKGMELNSEVLDIQRAKRASEMASEKEYKKDLESIIKGKGMQAGTDTLEMQHAKKAAEIASEKDYKRDLETEIKGKGMQVSTDTLDVQRAKKASEMASQKQYKKDLENEIKGKGMQVSMDIPDILRAKRTSEIYSQRKYKDEAEKMLSNYSTIADTPEIQRIKTTQQNISAVFYKKEVGAGTAVKDSPEIERVKKNQQNISSVKYKEEIKHATAISDPPELKRVKENQKNISNLQYKEQNYKATPVSMTPEIERVRRNQEQLSAVKYKGELQRGTAISDPPELKRAKENQKNISNVYYRGQLGRATTLSVTPEMERVKKNQENISSVKYTQDHKQMKGRPSLILDTPAMRHVKEAQNHISMVKYHEDFEKTKGRGFTPVVDDPVTERVRKNTQVVSDAAYKGVHPHIVEMDRRPGIIVDLKVWRTDPGSIFDLDPLEDNIQSRSLHMLSEKASHYRRHWSRSHSSSTFGTGLGDDRSEISEIYPSFSCCSEVTRPSDEGAPVLPGAYQQSHSQGYGYMHQTSVSSMRSMQHSPNLRTYRAMYDYSAQDEDEVSFRDGDYIVNVQPIDDGWMYGTVQRTGRTGMLPANYIEFVN
B4: STAM-binding protein (Homo sapiens), O95630 (parent)
chain: MSDHGDVSLPPEDRVRALSQLGSAVEVNEDIPPRRYFRSGVEIIRMASIYSEEGNIEHAFILYNKYITLFIEKLPKHRDYKSAVIPEKKDTVKKLKEIAFPKAEELKAELLKRYTKEYTEYNEEKKKEAEELARNMAIQQELEKEKQRVAQQKQQQLEQEQFHAFEEMIRNQELEKERLKIVQEFGKVDPGLGGPLVPDLEKPSLDVFPTLTVSSIQPSDCHTTVRPAKPPVVDRSLKPGALSNSESIPTIDGLRHVVVPGRLCPQFLQLASANTARGVETCGILCGKLMRNEFTITHVLIPKQSAGSDYCNTENEEELFLIQDQQGLITLGWIHTHPTQTAFLSSVDLHTHCSYQMMLPESVAIVCSPKFQETGFFKLTDHGLEEISSCRQKGFHPHSKDPPLFCSCSHVTVVDRAVTITDLR
partner: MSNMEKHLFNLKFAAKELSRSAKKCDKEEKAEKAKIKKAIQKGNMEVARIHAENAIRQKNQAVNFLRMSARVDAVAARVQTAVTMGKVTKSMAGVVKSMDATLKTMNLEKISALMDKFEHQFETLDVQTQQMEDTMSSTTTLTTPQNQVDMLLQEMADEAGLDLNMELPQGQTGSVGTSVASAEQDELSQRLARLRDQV

Variants of: B1
Settings: with facc1_human FLACC1, Q96Q35

| Variant | effect of a mutation on the interaction |
| --- | --- |
| A89V | with no effect |

Variants of: B2
Settings: with fhl3_human FHL3, Q13643
Chain of fhl3_human FHL3, Q13643 (Q13643 whole entry): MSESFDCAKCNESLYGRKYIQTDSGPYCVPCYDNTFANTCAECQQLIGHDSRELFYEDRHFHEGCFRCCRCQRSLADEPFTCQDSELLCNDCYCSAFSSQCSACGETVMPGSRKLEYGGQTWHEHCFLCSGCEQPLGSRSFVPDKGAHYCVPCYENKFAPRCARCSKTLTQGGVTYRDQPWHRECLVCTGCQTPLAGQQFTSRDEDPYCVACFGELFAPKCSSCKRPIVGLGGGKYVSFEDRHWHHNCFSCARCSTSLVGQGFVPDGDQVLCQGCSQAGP

| Variant | effect of a mutation on the interaction |
| --- | --- |
| A453T | with no effect |
| A408T | with no effect |

Variants of: B2
Settings: with traf1_human TRAF1, Q13077
Target sequence in this assay (Q13077 whole entry): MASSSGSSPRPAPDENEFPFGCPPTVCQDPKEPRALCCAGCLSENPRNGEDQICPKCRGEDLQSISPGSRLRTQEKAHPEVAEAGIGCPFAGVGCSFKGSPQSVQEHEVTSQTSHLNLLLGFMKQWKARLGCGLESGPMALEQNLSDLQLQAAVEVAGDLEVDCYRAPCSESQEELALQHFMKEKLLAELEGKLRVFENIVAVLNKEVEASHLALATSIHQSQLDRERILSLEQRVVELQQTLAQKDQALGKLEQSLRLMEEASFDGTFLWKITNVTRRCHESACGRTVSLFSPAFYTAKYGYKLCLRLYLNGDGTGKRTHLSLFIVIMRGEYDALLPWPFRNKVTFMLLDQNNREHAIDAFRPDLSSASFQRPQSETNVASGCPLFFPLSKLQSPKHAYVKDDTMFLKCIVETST

| Variant | effect of a mutation on the interaction |
| --- | --- |
| A453T | with no effect |
| A408T | with no effect |

Variants of: B3
Settings: with traf2_human TRAF2, Q12933
Chain of traf2_human TRAF2, Q12933 (Q12933 whole entry): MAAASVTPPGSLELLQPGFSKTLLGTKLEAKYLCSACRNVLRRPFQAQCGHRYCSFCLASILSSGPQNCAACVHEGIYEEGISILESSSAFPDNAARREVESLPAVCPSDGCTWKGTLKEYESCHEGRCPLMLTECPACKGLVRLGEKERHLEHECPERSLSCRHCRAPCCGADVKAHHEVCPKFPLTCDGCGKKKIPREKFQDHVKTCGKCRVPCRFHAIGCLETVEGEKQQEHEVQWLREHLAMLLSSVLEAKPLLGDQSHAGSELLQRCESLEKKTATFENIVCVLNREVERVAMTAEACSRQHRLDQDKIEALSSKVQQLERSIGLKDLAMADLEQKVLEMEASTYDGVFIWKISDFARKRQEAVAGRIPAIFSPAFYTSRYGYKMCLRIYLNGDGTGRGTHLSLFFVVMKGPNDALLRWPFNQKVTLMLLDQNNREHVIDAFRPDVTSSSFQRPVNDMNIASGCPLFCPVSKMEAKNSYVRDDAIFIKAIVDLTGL

| Variant | effect of a mutation on the interaction |
| --- | --- |
| R613Q | with no effect |
| M351V | with no effect |

Variants of: B3
Settings: with cc136_human CCDC136, Q96JN2
Chain of cc136_human CCDC136, Q96JN2 (Q96JN2 whole entry): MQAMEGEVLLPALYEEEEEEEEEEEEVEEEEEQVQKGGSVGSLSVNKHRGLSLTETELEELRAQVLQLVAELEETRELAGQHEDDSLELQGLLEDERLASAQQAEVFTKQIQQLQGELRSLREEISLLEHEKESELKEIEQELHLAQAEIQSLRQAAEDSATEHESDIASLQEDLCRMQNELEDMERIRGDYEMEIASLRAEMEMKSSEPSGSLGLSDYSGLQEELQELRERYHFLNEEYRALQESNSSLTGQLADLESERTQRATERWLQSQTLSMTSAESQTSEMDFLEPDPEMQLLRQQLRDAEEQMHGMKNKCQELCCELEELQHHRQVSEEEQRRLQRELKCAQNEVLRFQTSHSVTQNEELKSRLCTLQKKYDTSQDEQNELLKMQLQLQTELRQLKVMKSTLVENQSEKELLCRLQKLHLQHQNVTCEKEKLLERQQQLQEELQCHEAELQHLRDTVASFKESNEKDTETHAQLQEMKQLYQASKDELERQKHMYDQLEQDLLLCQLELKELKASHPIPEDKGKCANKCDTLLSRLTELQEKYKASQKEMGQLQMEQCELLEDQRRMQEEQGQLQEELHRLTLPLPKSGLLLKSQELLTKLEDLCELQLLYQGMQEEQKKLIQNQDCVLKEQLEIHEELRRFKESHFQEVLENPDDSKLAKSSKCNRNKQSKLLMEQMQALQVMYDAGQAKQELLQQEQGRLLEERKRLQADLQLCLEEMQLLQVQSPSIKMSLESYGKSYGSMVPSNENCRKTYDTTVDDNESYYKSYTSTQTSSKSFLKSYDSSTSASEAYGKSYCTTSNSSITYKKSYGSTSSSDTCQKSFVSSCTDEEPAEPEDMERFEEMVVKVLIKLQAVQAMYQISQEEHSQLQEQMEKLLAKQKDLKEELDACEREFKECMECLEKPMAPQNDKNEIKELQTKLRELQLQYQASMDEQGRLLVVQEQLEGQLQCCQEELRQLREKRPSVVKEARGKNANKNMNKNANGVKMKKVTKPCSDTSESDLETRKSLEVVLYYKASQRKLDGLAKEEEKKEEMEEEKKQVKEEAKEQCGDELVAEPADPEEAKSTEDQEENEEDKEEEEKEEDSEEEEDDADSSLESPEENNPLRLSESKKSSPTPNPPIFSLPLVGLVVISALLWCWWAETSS

| Variant | effect of a mutation on the interaction |
| --- | --- |
| R613Q | with no effect |
| M351V | with no effect |

Variants of: B3
Settings: with traf1_human TRAF1, Q13077
Target sequence in this assay (Q13077 whole entry): as the sequence (Q13077 whole entry) above

| Variant | effect of a mutation on the interaction |
| --- | --- |
| R613Q | with no effect |
| M351V | with no effect |

Variants of: B4
Settings: with chm1b_human CHMP1B

| Variant | effect of a mutation on the interaction |
| --- | --- |
| Q155H | with no effect |
| R255H | with no effect |
